The values that follow come from patent publication US20130295102A1 (Novartis, published 2013).

Assay [1] deals with T1, Human Factor P (human, UniProt P27918 29-469). As to the kind of experiment: cell-based or functional assay.
Assay [2] concerns the target Cynomolgus Factor P (cynomolgus). The experiment in a line: cell-based or functional assay.
Assay [3] has as its target T1, Human Factor P. The experiment in a line: Biacore SPR, captured Factor P. Background: SPR reads the build-up and loss of mass on a sensor chip optically.
Assay [4] addresses T2, Cynomolgus Factor P (cynomolgus).
T2 construct: Purified from cynomolgus serum for SET/Biacore; Factor P of cynomolgus serum in the functional assays; also called Cyno Factor P; cyno FP
The experiment in a line: Biacore SPR, captured Factor P.

Assay [5] addresses T1, Human Factor P. As to the kind of experiment: SET, solution equilibrium titration.
The target of assay [6] is T2, Cynomolgus Factor P. The experiment in a line: SET, solution equilibrium titration.

T1 sequence (P27918 29-469 limits assumed): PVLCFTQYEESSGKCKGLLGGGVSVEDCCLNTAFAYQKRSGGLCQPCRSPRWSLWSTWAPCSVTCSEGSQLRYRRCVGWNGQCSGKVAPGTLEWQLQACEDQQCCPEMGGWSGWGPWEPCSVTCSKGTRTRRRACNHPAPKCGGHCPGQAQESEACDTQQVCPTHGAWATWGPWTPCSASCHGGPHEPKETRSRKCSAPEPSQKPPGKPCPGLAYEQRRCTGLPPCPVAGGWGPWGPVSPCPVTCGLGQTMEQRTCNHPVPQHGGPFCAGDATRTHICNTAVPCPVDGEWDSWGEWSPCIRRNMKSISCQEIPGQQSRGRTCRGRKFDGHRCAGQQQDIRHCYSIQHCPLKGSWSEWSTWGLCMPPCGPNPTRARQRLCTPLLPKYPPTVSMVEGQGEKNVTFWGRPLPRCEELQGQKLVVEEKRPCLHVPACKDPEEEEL

B1: NVS967 (Fab, V domains shown)
VH: EVQLVQSGAEVKKPGASVKVSCKASGYTFTSHYMHWVRQAPGQGLEWMGNINPVDGGTEYAQKFQGRVTMTRDTSISTAYMELSSLRSEDTAVYYCARDGIEHGGHYYWGYLFDIWGQGTLVTVSS
VL: SYVLTQPPSVSVAPGKTARISCSGDSIREYYVHWYQQKPGQAPVLVIGDDTNRPSGIPERFSGSNSGNTATLTISRAQAGDEADYYCAAWDFSPAIVFGGGTKLTVLG
notes: Disulfide-bridged Fab; also called Fab NVS967
In general, Kd refers to a measure of binding affinity in units of concentration. As a reminder, the koff is the rate constant with which the complex falls apart. Low values mean slow dissociation, high ones fast dissociation. In general, kon refers to the rate constant with which the complex forms. Low readings indicate slow association, high ones fast association. As to B1, the “Hemolytic assay IC50 (nM), 10% serum” value is 9.61 nM in assay [1] and 14 nM in assay [2]. Moreover, the “Inhibition of C3a generation, 20% human serum” value in assay [1] turned out to be 43.5 nM. Also, the “Zymosan-C3b IC50 (nM), 10% serum” value was found to be 2.53 nM in assay [1] and 5.92 nM in assay [2]. Moreover, the Kd in assay [3] turned out to be 0.06 nM; in assay [4] it was 0.315 nM; in assay [5] it was 0.04 nM; in assay [6], 0.28 nM. The koff in assay [3] worked out at 9e-05 s⁻¹; in assay [4], 0.0006 s⁻¹. The kon in assay [3] and in assay [4] was 1e+06 M⁻¹ s⁻¹ throughout.
